Tests used:
[1] = test system: U266 MM subcutaneous tumors; assay: U266 subcutaneous tumor model of MM in NOD/SCID mice; format: in vivo, mouse; conditions: for mean difference of tumor volume between Gal-3C and Bor: Gal-3C lower than Bor, P<0.001
Procedure: Testing Gal-3C and Bonin NOD/SCID mouse model of MM: Prior to injection, U266 cells were washed once in Dulbecco's PBS (Sigma-Aldrich), counted, and adjusted to the appropriate density with additional PBS prior to inoculation. PBS containing a suspension of 1×10^7 U266 cells was injected subcutaneously into the abdomen of naive NOD/SCID mice. The primary tumors were measured with a pair of calipers once a week. Tumor volume was calculated by the formula width 2×length×0.5, where width was the smallest dimension. The mice were randomly divided into four groups with five mice in each group after 14 days. Control group #1 was subcutaneously implanted in the abdomen with a PBS-only containing 200-μl mini-osmotic pump. Group #2 received a dose of Gal-3C (30 μg/d/mouse) subcutaneously over a 16-day period for a total of 500 μg via a 200-μl mini-osmotic pump implanted abdominally. Group #3 was treated with six doses of 15 μg Bonin 50-μl injections via the tail vein on days 1-2, 8-9, and 15-16 for a total of 90 μg. Group #4 received Gal-3C via mini-pump for a total dose of 500 μg Gal-3C (30 μg/d/mouse) plus a total 90 μg Bor in 21 days. Anesthetized animals were euthanized and a post-mortem examination was conducted on the whole animals and dissected organs after 35 days.

[2] = test system: GFP-expressing HUVECs in U266 tumors; assay: Pilot study of in vivo angiogenesis inhibition (GFP-HUVEC plus U266 in Matrigel, nude mice); set-up: species or system mouse
Procedure: Pilot study of in vivo angiogenesis inhibition by Gal-3C. To determine the ability of Gal-3C to inhibit angiogenesis in vivo, 106 HUVECs infected with GFP-expressing rAAV vectors and 107 U266 MM cells were mixed together and suspended in 300 μL Matrigel. The cell mixture was injected subcutaneously into 6 nude mice and allowed to grow for two weeks. Three days after tumor administration, the mice were divided into two groups and one group was implanted with osmotic mini-pumps and treated with Gal-3C as in the study describe above. After 2 weeks, mice were sacrificed, pictures were taken, and the GFP-expressing cells in tumor masses were analyzed by flow cytometry.
The ability of Gal-3C to inhibit angiogenesis in vivo was determined in a pilot study. Six mice were injected with […] HUVECs and 107 U266 MM cells suspended in Matrigel and divided into two groups after two weeks. One group of 3 mice was implanted with osmotic mini-pumps and treated with Gal-3C as described above.

[3] = test system: HUVEC; assay: HUVEC chemotaxis (migration) toward U266 conditioned media; format: cell-based, human; conditions: U266 treated 48 h with 10 μg/mL Gal-3C, 5 nM Bor or both; 20% conditioned medium; ANOVA, Tukey's post-test
Procedure: Chemotaxis of HUVEC Cells. Chemotaxis (migration) was analyzed with HUVEC cells as a measure of angiogenic potential as reported (86), using 50×10^3 cells/well and 24-well transwell inserts with 8-μm pores. […] As a negative control, EGM-2 medium alone was used. After incubation for 16 h, cells were removed from the upper chamber, and the migrated cells were visualized on the lower side of the filter after fixing and staining with 30% methanol, 10% acetic and 0.1% Coomassie Brilliant Blue. Next, the filters were extensively washed with water, and then air-dried and photographed using an inverted X71 microscope (Olympus, Center Valley, Pa., USA). The average number of cells in 4 random fields per filter was calculated. The studies were run in triplicate and the results are expressed as a migration index (MI), as follows: MI=number of cells migrated in the presence of conditioned medium/number of cells migrated in the presence of EGM-2 alone. […] All assays were run in triplicate.
FIG. 3A is a graph of the results from the vascular endothelial cell migration assay. FIG. 3B is an image of the filters. […] Mean migration indexes (left; ±95% C.I.) expressed as the number of cells migrated in the presence of the indicated stimulus divided by the number of cells migrated in the presence of EBM-2 alone. […]

[4] = test system: MM cell lines (ARP-1, ARK-B, U266, 8226/Dox, MM-1S, MM-RL, NCI-H929, RMPI-8266); assay: Cell proliferation (viability) assays of MM cell lines; format: cell-based, human; conditions: all eight cell lines, at one or more concentrations (0.5, 1, 2 or 4 μg/ml); 48 hours; P<0.05; magnitude slight
Procedure: EXAMPLE 3 illustrates Gal-3C inhibits proliferation of MM cells. Cell Proliferation (Viability) Assays. Cell proliferation was assessed with a ViaLight Plus Cell Proliferation and Cytotoxicity BioAssay Kit (Lonza, Walkersville, Md., USA) according to the directions of the manufacturer. In brief, myeloma cells were seeded (8,000 per well) in 50 μL of RPMI-1640 with 10% heat-inactivated FBS (growth medium) in 96-well plates. HUVEC cells were seeded (10,000/well) in 50 μl EGM-2 medium in 96-well plates. Gal-3C (2× concentration) in 50 μL of growth medium was added to triplicate wells and the plate kept at the CO2 incubator at 37° C. for 48 hour. For the ViaLight assay, 50 μL of lysis buffer was added to each well, the plate was incubated for 10 minutes, after which 50 μL of cell lysate from each well was transferred to a solid white Lumitrac-200 plate and 50 μL of reconstituted AMR Plus was added. Luminescence was measured with a 1-s integrated setting in a Berthold luminometer after 2 minutes. […] Fluorescence intensity was measured at 590-nm on a Polarstar Galaxy (BMG Labtech, Cary, N.C.) microplate reader. The blank (growth media with 10 μl Alamar Blue) was subtracted from the raw fluorescence to obtain adjusted fluorescence readings. Triplicate data points were analyzed and the data shown are representative of 3 or more studies. […]

[5] = test system: HUVEC; assay: HUVEC tubule formation assay on Matrigel with U266 conditioned media; format: cell-based, human; conditions: 20% V/V conditioned medium of U266 treated 48 h with 10 μg/mL Gal-3C, 5 nM Bor or both; 16-hour incubation
Procedure: HUVEC Tubule Formation Assay. A tubule formation assay was performed in vitro as described (86) to measure angiogenesis. Briefly, growth factor-reduced Matrigel (Becton Dickinson) was allowed to polymerize in the presence of 30 ng/mL recombinant basic fibroblastic growth factor (bFGF; R&D Systems) for 1 hour at 37° C.
FIG. 5 is an image of the results from the In vitro tubule formation assay having 6 regions. Serum-starved HUVEC were allowed to form tubules on a […]™ surface in the presence of VEGF (positive control), EMB-2 medium alone (negative control), or EBM-2 supplemented with 20% V/V U266 conditioned media (c.m.). […] To evaluate the effect of different treatments on the ability of U266 cells to induce angiogenesis, a […]™-based tubule formation assay was performed in the presence of U266 conditioned media as described for the chemotaxis assay. Serum-starved (5×103) HUVEC were seeded on the […]™ surface in 200-μL EBM-2 medium supplemented with 20% V/V conditioned medium. Pictures were taken after 16-hour incubation in 5% CO2 at 37° C. The assay was run in triplicate and representative images are depicted in FIG. 5. As a positive control, EBM-2 medium supplemented with 20 ng/mL VEGF was used.

B1: Gal-3C: N-terminally truncated human galectin-3 consisting of 143 carboxy-terminal amino acid residues, SEQ ID NO: 1 (protein)
chain: GAPAGPLIVPYNLPLPGGVVPRMLITILGTVKPNANRIALDFQRGNDVAFHFNPRFNENNRRVIVCNTKLDNNWGREERQSVFPFESGKPFKIQVLVEPDHFKVAVNDAHLLQYNHRVKKLNEISKLGISGDIDITSASYTMI
With B1 as the molecule, how does the “mean difference of tumor volume between Gal-3C and Bor” value ([1]; day 21) read?
Its value is 4.431±1.494 mm^3.

And the “average tumor volume relative to that of the untreated controls” value ([1]; day 35, Gal-3C 30 μg/d/mouse by mini-osmotic pump, Bor six doses of 15 μg via tail vein)?
Its value is 13.5%.

And the “mean difference of tumor volume between Gal-3C and Bor” value ([1]; day 35)?
Its value is 31.54±4.379 mm3.

What about the “mean fluorescence intensity (MFI) of cells from tumor masses” value ([2]; GFP-expressing HUVEC, FACS, controls 19.24) of the same molecule?
The value was 9.4 MFI.

What about the “reduction of the number of endothelial cells in the tumors” value ([2]; compared to control mice) of the same molecule?
The value was 48%.

What about the “GFP-expressing HUVECs as share of the cells in tumor masses” value ([2]; controls 89.3%) of the same molecule?
Its value is 46.2%.

What about the “subcutaneous vascularization near tumors” value ([2]; image analyses of nude mice) of the same molecule?
Its value is “markedly reduced”.

What about the “tumor size (white circles, representative mouse)” value ([2]; nude mice, control 7 mm) of the same molecule?
The value was 3 mm.

And the “migration index compared with controls” value [3]?
Its value is “no significant difference”.

And the “proliferation of MM cells” value [4]?
Its value is “significantly inhibited”.

And the “potential of U266 cells for induction of angiogenesis (tubule formation)” value [5]?
Its value is “almost completely impaired”.

From patent US9744212B2, “Galectin-3C combination therapy for human cancer” (Texas Tech University System, priority 2011, dated 2017)
